Columns and labels:
Assay in all cases: IEDB peptide-MHC binding, purified MHC/competitive/radioactivity; filed as Kd, often an IC50 or EC50 that approximates it; ≥ and ≤ were set here for values at or beyond the usual limits of such assays
HLA-A*33:01 = target: HLA-A*33:01
HLA-A*68:01 = target: HLA-A*68:01
HLA-A*31:01 = target: HLA-A*31:01
HLA-A*03:01 = target: HLA-A*03:01
HLA-A*11:01 = target: HLA-A*11:01
[1] = source organism: SARS coronavirus Tor2
[2] = source organism: Vaccinia virus WR
[3] = source organism: Mammarenavirus juninense
[4] = source organism: Mammarenavirus guanaritoense
[5] = source organism: Mammarenavirus machupoense
[6] = source organism: Dengue virus 2 Peru/IQT2913/1996

Sequence	Kd (HLA-A*33:01; [2])	Kd (HLA-A*68:01; [2])	Kd (HLA-A*31:01; [2])	Kd (HLA-A*03:01; [2])	Kd (HLA-A*11:01; [2])	other results
AAISDYDYY						Kd (HLA-A*33:01; [1]): ≥ 77.7 µM; Kd (HLA-A*68:01; [1]): 4.81 µM; Kd (HLA-A*31:01; [1]): 17.5 µM; Kd (HLA-A*03:01; [1]): 0.698 µM; Kd (HLA-A*11:01; [1]): 1.1 µM
AAVTLNRIK	≥ 27.1 µM	3.16 µM	9.3 µM	≥ 34.8 µM	4.76 µM	
AFDISVNASK	≥ 32.3 µM	1.04 µM	1.66 µM	0.593 µM	1.23 µM	
AISKLGINY	8.45 µM	1.34 µM	2.74 µM	0.178 µM	0.022 µM	
ALCTFLLNK						Kd (HLA-A*33:01; [1]): 6.67 µM; Kd (HLA-A*68:01; [1]): 1.05 µM; Kd (HLA-A*31:01; [1]): 0.352 µM; Kd (HLA-A*03:01; [1]): 0.000778 µM; Kd (HLA-A*11:01; [1]): 0.00274 µM
ALEYLSELK	≥ 77.7 µM	3.48 µM	8.55 µM	0.988 µM	0.178 µM	
ALLRALRLTK						Kd (HLA-A*33:01; [1]): ≥ 70 µM; Kd (HLA-A*68:01; [1]): 1.79 µM; Kd (HLA-A*31:01; [1]): 0.233 µM; Kd (HLA-A*03:01; [1]): 0.00317 µM; Kd (HLA-A*11:01; [1]): 0.0245 µM
ALNHTKKWK						Kd (HLA-A*33:01; [1]): ≥ 77.7 µM; Kd (HLA-A*68:01; [1]): ≥ 77.7 µM; Kd (HLA-A*31:01; [1]): 0.528 µM; Kd (HLA-A*03:01; [1]): 0.784 µM; Kd (HLA-A*11:01; [1]): 5.64 µM
ANKQYIHCFR						Kd (HLA-A*33:01; [3]): 0.13 µM; Kd (HLA-A*68:01; [3]): 9.81 µM; Kd (HLA-A*31:01; [3]): 0.0128 µM; Kd (HLA-A*03:01; [3]): 17.8 µM; Kd (HLA-A*11:01; [3]): ≥ 46.6 µM
AVFKDSFLR	0.323 µM	0.000821 µM	0.00303 µM	0.0162 µM	0.00649 µM	
CCNWLDRCRH						Kd (HLA-A*33:01; [4]): 15.9 µM; Kd (HLA-A*68:01; [4]): ≥ 70.1 µM; Kd (HLA-A*31:01; [4]): 1.35 µM; Kd (HLA-A*03:01; [4]): ≥ 70 µM; Kd (HLA-A*11:01; [4]): ≥ 69.7 µM
CFKEASFSK	0.0116 µM	1.23 µM	0.013 µM	0.966 µM	1.37 µM	
CTDPSERVFK	≥ 54.5 µM	0.056 µM	2.93 µM	0.543 µM	0.01 µM	
DFESVTNSVY	14.8 µM	11.8 µM	15.6 µM	≥ 33.3 µM	≥ 25.4 µM	
DLISYGGGWR						Kd (HLA-A*33:01; source organism: Dengue virus 1 Brazil/97-11/1997): 1.39 µM
DLIVTFRERY	1.24 µM	0.0235 µM	0.137 µM	0.0351 µM	0.0526 µM	
DSPLTLLIK	≥ 77.7 µM	1.32 µM	≥ 55.6 µM	≥ 78 µM	6.25 µM	
DTSEVHWNYK						Kd (HLA-A*68:01; source organism: Dengue virus 4 Philippines/H241/1956): 0.00673 µM
DVKVLAARLK	5.07 µM	0.592 µM	3 µM	1.16 µM	2.35 µM	

Sequence	Kd (HLA-A*33:01; [2])	Kd (HLA-A*68:01; [2])	Kd (HLA-A*31:01; [2])	Kd (HLA-A*03:01; [2])	Kd (HLA-A*11:01; [2])	other results
EISSNDNAK	9.6 µM	0.031 µM	≥ 55.6 µM	16.8 µM	0.443 µM	
EIWTKEGER						Kd (HLA-A*33:01; source organism: Dengue virus 2 Jamaica/1409/1983): 0.0479 µM
ELNIVDEIIK	13.9 µM	2.65 µM	≥ 70 µM	11.8 µM	19 µM	
ESRDRKWLY	10.1 µM	3.93 µM	≥ 61 µM	≥ 51.2 µM	10.3 µM	
EWIEFTNFK						Kd (HLA-A*33:01; [5]): 0.0667 µM; Kd (HLA-A*68:01; [5]): 0.00452 µM; Kd (HLA-A*31:01; [5]): 15.4 µM; Kd (HLA-A*03:01; [5]): 9.58 µM; Kd (HLA-A*11:01; [5]): 3.29 µM
FFRKLVLTNK	0.243 µM	3.73 µM	0.2 µM	1.02 µM	0.39 µM	
FLALGFFLRK						Kd (HLA-A*03:01; source organism: Dengue virus 3 Martinique/1243/1999): 0.0291 µM
FLDKSIHLTK	0.53 µM	0.235 µM	0.104 µM	0.117 µM	0.177 µM	
FLMSGRGIGK						Kd (HLA-A*03:01; [6]): 0.00497 µM; Kd (HLA-A*11:01; [6]): 0.0752 µM
FTVKLGGVFH						Kd (HLA-A*33:01; [4]): 12.5 µM; Kd (HLA-A*68:01; [4]): 0.0274 µM; Kd (HLA-A*31:01; [4]): 0.695 µM; Kd (HLA-A*03:01; [4]): 14.8 µM
GIFKNNDVR	≥ 28.4 µM	0.132 µM	11.5 µM	2.21 µM	1.66 µM	
GLVASIKNFK						Kd (HLA-A*33:01; [1]): ≥ 20.6 µM; Kd (HLA-A*68:01; [1]): 0.507 µM; Kd (HLA-A*31:01; [1]): 7.56 µM; Kd (HLA-A*03:01; [1]): 0.63 µM; Kd (HLA-A*11:01; [1]): 1.32 µM
GTSTDVVYR						Kd (HLA-A*33:01; [1]): 0.481 µM; Kd (HLA-A*68:01; [1]): 0.0165 µM; Kd (HLA-A*31:01; [1]): 0.0303 µM; Kd (HLA-A*03:01; [1]): 0.0792 µM; Kd (HLA-A*11:01; [1]): 0.0179 µM
HAFDAPTLY	≥ 77.7 µM	0.0303 µM	≥ 48.4 µM	0.0339 µM	0.185 µM	
HLRVLFSIFY	1.85 µM	2.08 µM	1.01 µM	0.0375 µM	4.97 µM	
IAARILSEK	4.87 µM	0.0118 µM	4.55 µM	0.0149 µM	0.0135 µM	
IAPGIADIR	≥ 29 µM	0.0294 µM	≥ 23.9 µM	≥ 78 µM	≥ 50.1 µM	
IAQSKGLYR						Kd (HLA-A*33:01; [1]): 0.152 µM; Kd (HLA-A*68:01; [1]): 0.105 µM; Kd (HLA-A*31:01; [1]): 0.098 µM; Kd (HLA-A*03:01; [1]): 3.88 µM; Kd (HLA-A*11:01; [1]): 0.224 µM

— the Immune Epitope Database (IEDB)
